The supplement of paper PMC7877785
± gives the uncertainty stated by the source.

Experiment: self-splicing fitness, log relative to wild type (ln ratio); higher = more splicing; Tetrahymena group I intron in knt gene, E. coli kanamycin selection, DiMSum; sequences stand for … in CUCUCU…GGAGGGAAAAGUUAUCAGGCAUGCACCUGGUAGCUAGUCUUUAAACCAAUAGAUUGCAUCGGUUUAAAAGGCAAGACCGUCAAAUUGCGGGAAAGGGGUCAACAGCCGUUCAGUACCAAGUCUCAGGGGAAACUUUGAGAUGGCCUUGCAAAGGGUAUGGUAAUAAGCUGACGGACAUGGUCCUAACCACGCAGCCAAGUCCUAAGUCAACAGAUCUUCUGUUGAUAUGGAUGCAGUUCACAGACUAAAUGUCGGUCGGGGAAGAUGUAUUCUUCUCAUAAGAUAUAGUCGGACCUCUCCUUAAUGGGAGCUAGCGGAUGAAGUGAUGCAACACUGGAGCCGCUGGGAACUAAUUUGUAUGCGAAAGUAUAUUGAUUAGUUUUGGAGUACUCGUGGUCG
Method in brief: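 Pooled colonies went to amplicon sequencing on an Illumina HiSeq 2500 after six replicate transformations. The plates were LB agar with 100 μg/mL carbenicillin, 50 μM IPTG and 0.2% rhamnose, with or without 25 μg/mL kanamycin, incubated overnight at 37°C or 30°C. The E. coli BL21(DE3) library had all eight P1ex-region intron nucleotides randomised, the intron placed in the knt kanamycin-resistance gene on pET-22b(+). DiMSum fitness is the error-weighted combination of replicate fold changes, kanamycin against none, normalised to wild type.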

Row | Sequence | self-splicing fitness (ln) (30 °C) | self-splicing fitness (ln) (37 °C)
1 | AGGUAGCAAUAUUACGUGGA | -3.365 ± 0.027 | -2.61 ± 0.037
2 | AGGUAGCAAUAUUACGUUCA | -0.556 ± 0.014 | -0.256 ± 0.033
3 | AGGUAGCAAUAUUACGUUGC | -3.874 ± 0.031 | -3.06 ± 0.047
4 | AGUAAGCAAUAUUACGAAAA | -2.29 ± 0.38 | -1.89 ± 0.33
5 | AGUAAGCAAUAUUACGAACA | -0.711 ± 0.13 | -0.282 ± 0.14
6 | AGUAAGCAAUAUUACGAUAA | -2.23 ± 0.32 | -1.4 ± 0.19
7 | AGUAAGCAAUAUUACGAUAC | -3.12 ± 0.28 | -2.48 ± 0.38
8 | AGUAAGCAAUAUUACGAUCC | -0.71 ± 0.097 | 0.236 ± 0.15
9 | AGUAAGCAAUAUUACGCCUC |  | -1.7 ± 0.38
10 | AGUAAGCAAUAUUACGCGCC | -0.457 ± 0.22 | 0.671 ± 0.29
11 | AGUAAGCAAUAUUACGGAGA | -3.47 ± 0.32 | -2.44 ± 0.42
12 | AGUAAGCAAUAUUACGGCCC | -0.317 ± 0.14 | -0.0183 ± 0.22
13 | AGUAAGCAAUAUUACGGCUC | -2.15 ± 0.2 | -1.79 ± 0.27
14 | AGUAAGCAAUAUUACGGGUC | -3.31 ± 0.42 | -2.92 ± 0.31
15 | AGUAAGCAAUAUUACGGGUG | -3.13 ± 0.18 | -0.695 ± 0.11
16 | AGUAAGCAAUAUUACGGUGA | -2.73 ± 0.17 | -1.21 ± 0.14
17 | AGUAAGCAAUAUUACGUAAG | -1.35 ± 0.13 | -1.96 ± 0.23
18 | AGUAAGCAAUAUUACGUCCG | -2.03 ± 0.17 | -0.809 ± 0.21
19 | AGUAAGCAAUAUUACGUCGC |  | -1.65 ± 0.31
20 | AGUAAGCAAUAUUACGUGCC | -0.0863 ± 0.11 | -0.612 ± 0.16
21 | AGUAAGCAAUAUUACGUGUG | -4.26 ± 0.18 | -2.32 ± 0.12
22 | AGUAAGCAAUAUUACGUUCA | -1.29 ± 0.095 | -0.266 ± 0.12

Row | Sequence | self-splicing fitness (ln) (30 °C) | self-splicing fitness (ln) (37 °C)
23 | AGUAAGCAAUAUUACGUUCU | -0.729 ± 0.085 | -1.21 ± 0.11
24 | AGUCAGCAAUAUUACGAUCC | 0.284 ± 0.16 | 0.198 ± 0.23
25 | AGUCAGCAAUAUUACGAUGU | 0.202 ± 0.062 | 0.34 ± 0.087
26 | AGUCAGCAAUAUUACGCAGA | -1.64 ± 0.2 | -1.45 ± 0.22
27 | AGUCAGCAAUAUUACGCCCC | 0.28 ± 0.17 | 0.672 ± 0.33
28 | AGUCAGCAAUAUUACGCCCU | -1.1 ± 0.24 | -0.315 ± 0.3
29 | AGUCAGCAAUAUUACGCUCA | -0.675 ± 0.095 | -0.791 ± 0.12
30 | AGUCAGCAAUAUUACGCUGU | -4.12 ± 0.34 | -2.73 ± 0.22
31 | AGUCAGCAAUAUUACGGACA | 0.233 ± 0.078 | 0.157 ± 0.087
32 | AGUCAGCAAUAUUACGGAGA |  | -1.53 ± 0.38
33 | AGUCAGCAAUAUUACGGAUA | -0.982 ± 0.1 | -0.318 ± 0.098
34 | AGUCAGCAAUAUUACGGCCC | -0.436 ± 0.12 | -0.0813 ± 0.18
35 | AGUCAGCAAUAUUACGGGAA | -2.12 ± 0.17 | -2.4 ± 0.22
36 | AGUCAGCAAUAUUACGGGAU | -1.04 ± 0.079 | -1.51 ± 0.15
37 | AGUCAGCAAUAUUACGGUAU | -0.592 ± 0.05 | -0.99 ± 0.063
38 | AGUCAGCAAUAUUACGUAUC | -1.19 ± 0.076 | -0.186 ± 0.11
39 | AGUCAGCAAUAUUACGUCAG | -2.65 ± 0.16 | -1.86 ± 0.15
40 | AGUCAGCAAUAUUACGUCUC | -4.29 ± 0.31 | -2.01 ± 0.15
41 | AGUCAGCAAUAUUACGUGAG | -0.691 ± 0.054 | -0.0397 ± 0.086
42 | AGUCAGCAAUAUUACGUGCU | -2.18 ± 0.12 | -1.43 ± 0.12
43 | AGUCAGCAAUAUUACGUGGU | -1.26 ± 0.11 | -2.37 ± 0.19
